According to patent US9283300B2, “Use of midkine protein and the protein-containing medical device” (GENERAL REGENERATIVES, LTD, priority 2009, dated 2016):
“And” between values parts separate entries of the source, which are not always exact repeats. Identical values can stand only once.

Columns and labels:
[1] = system: cartilage of normal mouse (knee-joint articular, ear elastic, tracheal, intervertebral disc); experiment: rhMK effect on cartilage thickness of normal mice (subcutaneous injection, histology); assay type: in vivo, C57BL/6J mice; conditions: for Thickness of cartilage, Ear elastic cartilage / Thickness of cartilage, Femoral condyle / Thickness of cartilage, Intervertbral disc (T2-3): normal mouse, mean ± SD
Procedure: Method. 8-weeks-old male C57BL/6J mice were injected subcutaneously with recombinant human MK (rhMK) or control saline. The injection volume was 0.5 ml, given daily for a week. The mice were grouped (3 animals per group): Saline (NS) group, rhMK groups injected with various dosages at 10, 33, 100, 300, 900 μg/kg. Rats were injected with saline or rhMK (175 μg/kg) daily for a week. Rabbits were injected with saline or rhMK (92.5 μg/kg) daily for two week. Histological observation and evaluation. The knee joint tissues of all mice and rats were fixed in 10% (v/v) formalin for 1 day, the tissues of rabbits were fixed for 2 days. The fixed tissues were subjected to demineralization in liquid (7% AlCl3.6H2O, 5% methanoic acid, 8.5% HCl) 4 days for mouse and rats issues, and 10 days for rabbit tissues. The demineralized tissues were subjected to dehydration by gradient ethanol, and treated for transparency by xylene, and embedded in wax. Tissue sections were prepared by the paraffin slicing machine (Laica), and stained with hemotoxylin/eosin or Safranine O/fast green staining. Slides were observed under microscope and analyzed. The thickness of cartilage tissues were measured by the vernier caliper on microscope. Three tissue sections from each sample were measured and analyzed statisticaly. The distance between surface of cartilage to subchondral tide line was measured at ½ position of femoral condyle to denote the thickness of knee-joint cartilage. The thickness of cartilage at central part of ears was measured to denote the thickness of ear elastic cartilage. The distance between out surface of annulus to nucleus of the intervertebral disc was measured to denote the thickness of thoracic intervertebral disc (T2-3). The injection dose of rhMK: mice was injected subcutaneously 300 μg/kg daily for a week; rats were injected 175 μg/kg daily for a week; and New Zealand rabbits was injected 92.5 μg/kg daily for two weeks. Three animals per group were analyzed.

[2] = system: rat articular chondrocyte; experiment: Cell expansion in passaged monolayer culture; assay type: cell-based
Procedure: (§1) 1. Preparation of primary chondrocyte. The 8-week-old male SD rats were sacrificed under sterile conditions. The articular cartilage, fibrocartilage and elastic cartilage tissue were isolated from the femur joints, meniscus and outer ear respectively using a scalpel. The isolated cartilage were cut into small pieces, washed twice with phosphate buffered saline (PBS), and digested with trypsin (0.25% (w/v) trypsin/0.02% (w/v) EDTA) at 37° C. for 30 min. The articular cartilage and elastic cartilage were further digested with 0.2% type II collagenase for additional 16 h, and the fibrocartilage were further digested with 0.15% type I collagenase for additional 16 h. After digestion, three chondrocytes were passed through 100 μm filter (Falcon, USA) into 15 ml centrifuge tubes, centrifuged at room temperature at 2000 rpm for 5 min. Cells were resuspended in DMEM containing 10% FBS (fetal bovine serum). Trypan blue staining of the freshly isolated cells was used to monitor the percentage of live cells under the microscope. When the number of live cells is more than 95%, it was used for subsequent experiments.
(§2) 3. Culture of primary chondrocytes in monolayer. Three types of primary chondrocytes were suspended in DMEM medium containing 10% FBS, adjusted to 5×10^4 cells/ml, added to 6-well plate with 2 ml medium/well, and incubated in 37° C. at 5% CO2. Experiment was divided into two groups: control group and experimental group (with 3 μg/ml rhMK). Cell medium was changed every two days. When the cells grew to the confluence of 85% to 90%, the cells were collected by trypsin digestion, washed in PBS by centrifugation. The cells were resuspended in DMEM containing 10% FBS. Cell survival was monitored by trypan blue staining. Part of the cells were used for cell passage; some were for RNA extraction; some were cytospined onto a glass slide for later immunohistochemical staining and the slides were stored at −80° C. Primary cells or passage 0 (P0) were cultured for 7 days. The newly passaged cells were further cultured in a 6-well plate for 3 days which was then collected by trypsin-digestion and marked as passage P1. The cell amplification at each passage=total number of cells at output/total number of cells at initial input.

[3] = system: rat auricular chondrocyte; experiment: Cell expansion in passaged monolayer culture; assay type: cell-based
Procedure: as §1, §2

rat fibrochondrocyte = experiment: Cell expansion in passaged monolayer culture; assay type: cell-based
Procedure: as §1, §2

[4] = Mouse, rhMK 300 μg/kg s.c. daily for a week
[5] = rhMK 10 μg/kg s.c. daily for one week
[6] = rhMK 33 μg/kg s.c. daily for one week
[7] = rhMK 100 μg/kg s.c. daily for one week
[8] = rhMK 300 μg/kg s.c. daily for one week
[9] = rhMK 900 μg/kg s.c. daily for one week
[10] = P0, rhMK 3 μg/ml versus no rhMK
[11] = P1, rhMK 3 μg/ml versus no rhMK
[12] = P2, rhMK 3 μg/ml versus no rhMK

B1: rhMK: recombinant human midkine mature protein (SEQ ID NO.1) expressed in E. coli and purified by ion-exchange chromatography (protein, listed as Homo sapiens)
chain: MKKKDKVKKGGPGSECAEWAWGPCTPSSKDCGVGFREGTCGAQTQRIRCRVPCNWKKEFGADCKYKFENWGACDGGTGTKVRQGTLKKARYNAQCQETIRVTKPCTPKTKAKAKAKKGKGKD
For B1, which Cartilage thickness, Ear [1, 4] is on record?
Its Cartilage thickness, Ear is 58.5 ± 19.6 µm.

And the Cartilage thickness, Femoral condyle [1, 4]?
The Cartilage thickness, Femoral condyle was 195 ± 9.9 µm.

What about the Cartilage thickness, Intervertbral disc (T2-3) [1, 4] of the same molecule?
Its Cartilage thickness, Intervertbral disc (T2-3) is 201 ± 17.2 µm.

And the Cartilage thickness, Trachea [1, 4]?
The Cartilage thickness, Trachea was 114 ± 18 µm.

What about the “effective dose that promoted the growth of all three categories of cartilages” value ([1]; mice, s.c. daily for a week) of the same molecule?
Its value is 300 µg/kg/day.

And the “minimum effective dose, articular cartilage and ear elastic cartilage” value ([1]; mice, s.c. daily for a week)?
The value was 10 µg/kg/day.

And the “Thickness of cartilage, Ear elastic cartilage” value [1, 5]?
Its value is 47.6 ± 4.7 μm.

And the “Thickness of cartilage, Femoral condyle” value [1, 5]?
The value was 152 ± 2.7 μm.

And the “Thickness of cartilage, Intervertbral disc (T2-3)” value (“Thickness of cartilage … (T2-3)” below) [1, 5]?
The value was 193.8 ± 25.2 μm.

And the “Thickness of cartilage, Ear elastic cartilage” value [1, 6]?
The value was 46.2 ± 5.6 μm.

And the “Thickness of cartilage, Femoral condyle” value [1, 6]?
The value was 156.4 ± 8.1 μm.

What about the “Thickness of cartilage … (T2-3)” value [1, 6] of the same molecule?
Its value is 206.2 ± 29.4 μm.

What about the “Thickness of cartilage, Ear elastic cartilage” value [1, 7] of the same molecule?
Its value is 48.9 ± 5.5 μm.

And the “Thickness of cartilage, Femoral condyle” value [1, 7]?
Its value is 172.4 ± 11.1 μm.

What about the “Thickness of cartilage … (T2-3)” value [1, 7] of the same molecule?
Its value is 193.8 ± 3.1 μm.

And the “Thickness of cartilage, Ear elastic cartilage” value [1, 8]?
Its value is 58.5 ± 19.6 μm.

And the “Thickness of cartilage, Femoral condyle” value [1, 8]?
The value was 195.3 ± 9.9 μm.

What about the “Thickness of cartilage … (T2-3)” value [1, 8] of the same molecule?
Its value is 200.7 ± 17.2 μm.

What about the “Thickness of cartilage, Ear elastic cartilage” value [1, 9] of the same molecule?
The value was 51.6 ± 5.6 μm.

What about the “Thickness of cartilage, Femoral condyle” value [1, 9] of the same molecule?
Its value is 200.0 ± 7.0 μm.

And the “Thickness of cartilage … (T2-3)” value [1, 9]?
Its value is 217.1 ± 6.0 μm.

What about the “Cell expansion (in fold)” value ([2]; P0, rhMK 3 μg/ml) of the same molecule?
The value was 13.5 ± 1.2 fold.

What about the “Proliferation rate (%)” value [2, 10] of the same molecule?
The value was 112%.

And the “Cell expansion (in fold)” value ([2]; P1, rhMK 3 μg/ml)?
Its value is 12.0 ± 1.4 fold.

And the “Proliferation rate (%)” value [2, 11]?
The value was 74%.

And the “Cell expansion (in fold)” value ([2]; P2, rhMK 3 μg/ml)?
The value was 11.5 ± 0.5 fold.

What about the “Proliferation rate (%)” value [2, 12] of the same molecule?
The value was 48%.

And the “Cell expansion (in fold)” value ([3]; P0, rhMK 3 μg/ml)?
The value was 7.9 ± 0.1 fold.

And the “Proliferation rate (%)” value [3, 10]?
The value was 65%.

And the “Cell expansion (in fold)” value ([3]; P1, rhMK 3 μg/ml)?
Its value is 16.1 ± 1.1 fold.

And the “Proliferation rate (%)” value [3, 11]?
Its value is 66%.

And the “Cell expansion (in fold)” value ([3]; P2, rhMK 3 μg/ml)?
The value was 8.2 ± 1.0 fold.

And the “Proliferation rate (%)” value [3, 12]?
Its value is 55%.

And the “Cell expansion (in fold)” value (rat fibrochondrocyte; P0, rhMK 3 μg/ml)?
Its value is 5.3 ± 1.3 fold.

What about the “Proliferation rate (%)” value (rat fibrochondrocyte; [10]) of the same molecule?
The value was 112% and 110%.

And the “Cell expansion (in fold)” value (rat fibrochondrocyte; P1, rhMK 3 μg/ml)?
Its value is 28.1 ± 3.4 fold.

What about the “Proliferation rate (%)” value (rat fibrochondrocyte; [11]) of the same molecule?
Its value is 51%.

What about the “Cell expansion (in fold)” value (rat fibrochondrocyte; P2, rhMK 3 μg/ml) of the same molecule?
The value was 20.9 ± 0.9 fold.

What about the “Proliferation rate (%)” value (rat fibrochondrocyte; [12]) of the same molecule?
Its value is 35%.
